Laboratory results taken from patent publication US20230242666A1.

Target: chondroitin sulfate proteoglycan 4 (CSPG4) (human) (UniProt Q6UVK1)
Assay: cell-based or functional assay

Sequence of UniProt Q6UVK1 (Q6UVK1 30-2322): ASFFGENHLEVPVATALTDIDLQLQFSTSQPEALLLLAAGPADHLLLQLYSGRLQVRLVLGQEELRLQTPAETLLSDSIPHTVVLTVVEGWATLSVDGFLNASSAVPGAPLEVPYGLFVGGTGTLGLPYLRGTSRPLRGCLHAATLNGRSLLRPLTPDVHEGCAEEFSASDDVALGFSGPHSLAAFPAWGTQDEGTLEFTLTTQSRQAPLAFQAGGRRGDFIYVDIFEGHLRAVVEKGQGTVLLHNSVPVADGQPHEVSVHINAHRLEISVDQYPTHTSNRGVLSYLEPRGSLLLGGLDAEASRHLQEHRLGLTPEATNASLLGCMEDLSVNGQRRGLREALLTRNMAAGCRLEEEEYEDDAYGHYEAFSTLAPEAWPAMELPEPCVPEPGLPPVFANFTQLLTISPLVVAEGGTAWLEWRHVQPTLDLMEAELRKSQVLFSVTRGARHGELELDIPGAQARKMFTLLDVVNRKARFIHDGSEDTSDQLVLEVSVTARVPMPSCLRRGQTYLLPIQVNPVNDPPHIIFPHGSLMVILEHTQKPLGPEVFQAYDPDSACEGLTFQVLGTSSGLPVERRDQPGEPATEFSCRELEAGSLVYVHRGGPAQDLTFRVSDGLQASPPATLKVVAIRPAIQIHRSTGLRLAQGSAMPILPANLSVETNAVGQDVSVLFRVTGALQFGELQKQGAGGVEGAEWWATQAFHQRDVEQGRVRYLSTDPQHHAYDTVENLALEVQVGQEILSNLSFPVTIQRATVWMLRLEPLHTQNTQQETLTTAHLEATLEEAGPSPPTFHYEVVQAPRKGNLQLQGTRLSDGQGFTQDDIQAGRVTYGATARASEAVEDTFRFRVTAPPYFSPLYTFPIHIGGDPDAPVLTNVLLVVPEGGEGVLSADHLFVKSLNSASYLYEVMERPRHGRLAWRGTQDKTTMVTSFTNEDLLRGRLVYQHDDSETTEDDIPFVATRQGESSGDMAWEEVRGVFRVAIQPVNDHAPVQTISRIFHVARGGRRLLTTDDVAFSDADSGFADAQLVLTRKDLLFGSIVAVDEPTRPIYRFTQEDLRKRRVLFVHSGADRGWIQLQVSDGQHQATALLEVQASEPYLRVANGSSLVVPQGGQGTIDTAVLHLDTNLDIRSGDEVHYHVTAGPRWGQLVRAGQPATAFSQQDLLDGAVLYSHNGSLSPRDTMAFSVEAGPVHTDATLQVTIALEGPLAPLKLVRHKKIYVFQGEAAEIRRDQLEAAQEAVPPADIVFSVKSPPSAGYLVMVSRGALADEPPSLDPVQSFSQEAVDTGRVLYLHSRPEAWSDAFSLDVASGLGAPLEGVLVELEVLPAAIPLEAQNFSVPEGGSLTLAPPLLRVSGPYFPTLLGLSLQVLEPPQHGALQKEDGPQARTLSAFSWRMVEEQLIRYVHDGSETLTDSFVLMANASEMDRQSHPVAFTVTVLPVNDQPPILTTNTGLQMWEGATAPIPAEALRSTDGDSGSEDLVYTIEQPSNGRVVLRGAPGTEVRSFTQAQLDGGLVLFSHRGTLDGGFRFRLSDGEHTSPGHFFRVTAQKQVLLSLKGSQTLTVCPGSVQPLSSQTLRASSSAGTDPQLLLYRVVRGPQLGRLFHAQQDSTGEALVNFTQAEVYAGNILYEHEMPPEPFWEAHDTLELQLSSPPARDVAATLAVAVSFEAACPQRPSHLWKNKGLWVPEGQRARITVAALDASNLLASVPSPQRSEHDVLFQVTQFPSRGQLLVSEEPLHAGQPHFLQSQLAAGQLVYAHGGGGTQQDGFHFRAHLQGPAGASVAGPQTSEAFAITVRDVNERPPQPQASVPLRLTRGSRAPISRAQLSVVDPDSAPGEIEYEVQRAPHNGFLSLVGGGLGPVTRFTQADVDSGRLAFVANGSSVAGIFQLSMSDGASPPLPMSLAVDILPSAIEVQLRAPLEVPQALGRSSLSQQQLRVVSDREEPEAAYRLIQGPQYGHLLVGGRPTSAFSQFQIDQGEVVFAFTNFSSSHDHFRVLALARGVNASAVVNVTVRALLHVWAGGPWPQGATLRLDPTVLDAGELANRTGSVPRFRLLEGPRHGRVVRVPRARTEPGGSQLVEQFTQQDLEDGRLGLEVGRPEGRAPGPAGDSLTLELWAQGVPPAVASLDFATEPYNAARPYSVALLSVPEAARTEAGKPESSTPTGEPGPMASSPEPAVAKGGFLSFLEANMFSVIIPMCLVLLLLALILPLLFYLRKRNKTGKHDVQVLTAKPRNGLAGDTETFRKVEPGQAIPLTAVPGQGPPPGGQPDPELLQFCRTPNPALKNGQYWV

residual tumor cells after coculture of CAR-T cells with WM115 (CSPG4+) melanoma cells, E:T 1:5 [%] | residual tumor cells after coculture of CAR-T cells with CSPG4+ WM115 melanoma cells [%] | Binder
43.6 | – | 763.74(A)4-1BB CAR (protein, not shown: small tags and cut ends) MQVKLKESGPELKKPGETVKISCKASGYTFTDYSMHWVKKTPGKGLKWLGWINTATGEPTYADDFKGRFAISLETSARTVYLQINNLRNEDTATYFCFSYYDYWGQGTTVTVSSGGGGSGGGGSGGGGDIKLSQSPSILSVTPGETVSLSCRASQTIYKNLHWYQQKSHRSPRLLIKYGSDSISGIPSRFTGSGSGTDYTLNINSVKPEDQGIYYCLQGYSTPWTFGGGTKLEIK
2.2 | – | 763.74(A)CD28 CAR (protein, not shown: small tags and cut ends) MQVKLKESGPELKKPGETVKISCKASGYTFTDYSMHWVKKTPGKGLKWLGWINTATGEPTYADDFKGRFAISLETSARTVYLQINNLRNEDTATYFCFSYYDYWGQGTTVTVSSGGGGSGGGGSGGGGDIKLSQSPSILSVTPGETVSLSCRASQTIYKNLHWYQQKSHRSPRLLIKYGSDSISGIPSRFTGSGSGTDYTLNINSVKPEDQGIYYCLQGYSTPWTFGGGTKLEIK
– | 11 | h763.74(#2)CD28 CAR (protein, not shown: large carriers) MDIKLTQSPSILSASVGDRVIITCRASQTIYKNLHWYQQKPHRSPRLLIKYGSDSISGIPSRFSGSGSGTEYTLTISSLQPDDFAIYYCLQGYSTPWTFGGGTKLTVLGGGGGSGGGGSGGGGSGGGGSQVQLVESGGGLVQPGGSLRLSCTASGYTFTDYSMHWVRKTPGKGLKWVGWINTATGEPTYADDFKGRFTISLDTSKNTVYLQMNSLRAEDTATYFCFSYYDYWGQGTTVTVSS
– | 10 | h763.74(#5)CD28 CAR (protein, not shown: large carriers) MEIVMTQSPSTLSASVGDRVIITCRASQTIYKNLHWYQQKPGKSPKLLIKYGSDSISGVPSRFSGSGSGTEYTLTISSLQPDDFATYYCLQGYSTPWTFGQGTKLTVLGGGGGSGGGGSGGGGSGGGGSQVQLVESGGGLVQPGGSLRLSCTASGYTFTDYSMHWVRKAPGKGLEWVGWINTATGEPTYADDFKGRFTISLDTSKNTVYLQMNSLRAEDTAVYFCASYYDYWGQGTLVTVSS
